# Measurements taken from publication PMC8080960 (The journal of physical chemistry. B, 2021).
# Target: the molecule itself
# Experiment: amyloid fibril formation
protein,measurement,value
"C-terminal domain of TDP-43 (TDP-43CTD), wild type, residues 267-414, tagless (domain or fragment) GHMNRQLERSGRFGGNPGGFGNQGGFGNSRGGGAGLGNNQGSNMGGGMNFGAFSINPAMMAAAQAALQSSWGMMGMLASQQNQSGPSGNNQNQGNMQREPNQAFGSGNNSYSGSNSGAAIGWGSASNAGSGSGFNGGFGSSMDSKSSGWGM",binding result,binds
